Assay results reported in US20180094059A1 (UNIVERSITAT STUTTGART, published 2018).
Blank lines part the entries; values can stand above or below the binder they belong to.

Columns and labels:
[1] = biological target: T1, HER3-Fc (UniProt P21860 20-643); experiment: ELISA, HER3-Fc
T1 construct: not shown: Fc part

[2] = biological target: T2, TRAIL-R2-Fc (human, UniProt O14763 56-210); experiment: ELISA, TRAIL-R2-Fc
T2 construct: extracellular domain; also called DR5-Fc; DR5-Fc fusion protein; not shown: Fc-part

[3] = biological target: T3, EGFR-Fc (UniProt P00533 25-645); experiment: ELISA, EGFR-Fc
T3 construct: also called purified EGFR-Fc; not shown: Fc part

[4] = biological target: T4, EGFR on EGFR-positive tumor cell lines (UniProt P00533 25-1210, limits assumed); experiment: flow cytometry, HCT116 cells
T4 construct: whole, on cells; The cell line is named under assay or readout; also called EGFR+ cell lines

[5] = biological target: T4, EGFR on EGFR-positive tumor cell lines; experiment: flow cytometry, HCT116 cells; remark: listed apart in the source
[6] = biological target: T4, EGFR on EGFR-positive tumor cell lines; experiment: flow cytometry, Colo205 cells
[7] = biological target: T4, EGFR on EGFR-positive tumor cell lines; experiment: flow cytometry, Colo205 cells; remark: listed apart in the source
[8] = biological target: T4, EGFR on EGFR-positive tumor cell lines; experiment: cell-based or functional assay
[9] = biological target: T5, TRAIL-R1-Fc (human, UniProt O00220 24-239); experiment: ELISA, coated DR4-Fc (3 µg/ml), anti-Flag-HRP detection
T5 construct: extracellular domain; also called DR4-Fc; not shown: Fc-part

[10] = biological target: T2, TRAIL-R2-Fc; experiment: ELISA, coated DR5-Fc (3 µg/ml), anti-Flag-HRP detection
Experimental: The binding properties of the scTRAIL₃-fusion proteins to all five human TRAIL receptors were analyzed via ELISA. The extracellular domain (ECD) of the human death receptors (DR) 4 (TRAIL-R1) and 5 (TRAIL-R2), or of the human decoy receptors (DcR) 1 (TRAIL-R3) and 2 (TRAIL-R4) as well as human osteoprotegerin (OPG) was fused to the N-terminus of the Fc-part and was expressed in transiently transfected HEK293 cells. ELISA-plates were coated with ECD-Fc or OPG-Fc fusion proteins (3 μg/ml). […] Bound scTRAIL₃-fusion proteins were detected via HRP-conjugated anti-Flag antibody.

[11] = biological target: T6, DcR2-Fc (human, UniProt Q9UBN6 56-211); experiment: ELISA, coated DcR2-Fc (3 µg/ml), anti-Flag-HRP detection
T6 construct: extracellular domain; also called TRAIL-R4-Fc; not shown: Fc-part
T6 sequence (looked up): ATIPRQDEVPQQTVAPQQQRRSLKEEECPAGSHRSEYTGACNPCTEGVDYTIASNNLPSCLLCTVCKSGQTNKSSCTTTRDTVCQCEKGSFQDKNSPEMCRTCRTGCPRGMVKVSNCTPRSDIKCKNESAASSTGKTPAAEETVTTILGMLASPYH

EC50 [1]: 11.6 nM | EC50 [2]: 2.65 nM
B1: scFv3M6-EHD2-scTRAIL3-FLVGGGPQRVA (other)
chain: EVQLLESGGGLVQPGGSLRLSCAASGFTFSHYVMAWVRQAPGKGLEWVSSISSSGGWTLYADSVKGRFTISRDNSKNTLYLQMNSLRAEDTAVYYCTRGLKMATIFDYWGQGTLVTVSSGGGGSGGGGSGGGGSQSALTQPASVSGSPGQSITISCTGTSSDVGSYNVVSWYQQHPGKAPKLIIYEVSQRPSGVSNRFSGSKSGNTASLTISGLQTEDEADYYCSSYAGSSIFVIFGGGTKVTVLAAAGGSGGDFTPPTVKILQSSCDGGGHFPPTIQLLCLVSGYTPGTINITWLEDGQVMDVDLSTASTTQEGELASTQSELTLSQKHWLSDRTYTCQVTYQGHTFEDSTKKCADSNGGSGGASSGGGPQRVAAHITGTRGRSNTLSSPNSKNEKALGRKINSWESSRSGHSFLSNLHLRNGELVIHEKGFYYIYSQTYFRFQEEIKENTKNDKQMVQYIYKYTSYPDPILLMKSARNSCWSKDAEYGLYSIYQGGIFELKENDRIFVSVTNEHLIDMDHEASFFGAFLVGGGPQRVAAHITGTRGRSNTLSSPNSKNEKALGRKINSWESSRSGHSFLSNLHLRNGELVIHEKGFYYIYSQTYFRFQEEIKENTKNDKQMVQYIYKYTSYPDPILLMKSARNSCWSKDAEYGLYSIYQGGIFELKENDRIFVSVTNEHLIDMDHEASFFGAFLVGGGPQRVAAHITGTRGRSNTLSSPNSKNEKALGRKINSWESSRSGHSFLSNLHLRNGELVIHEKGFYYIYSQTYFRFQEEIKENTKNDKQMVQYIYKYTSYPDPILLMKSARNSCWSKDAEYGLYSIYQGGIFELKENDRIFVSVTNEHLIDMDHEASFFGAFLV

EC50 [3]: 0.156 nM | EC50 [4]: 0.008 nM | EC50 [5]: 0.07 nM | EC50 [6]: 0.028 nM | EC50 [7]: 0.06 nM
B2: anti-EGFR IgG (antibody, V domains shown)
VH: EVQLVESGGGLVQPGGSLRLSCAASGFSLTNYGVHWVRQAPGKGLEWLGVIWSGGNTDYNTPFTSRFTISRDNSKNTLYLQMNSLRAEDTAVYYCARALTYYDYEFAYWGQGTTVTVSS
VL: DIQLTQSPSFLSASVGDRVTITCRASQSIGTNIHWYQQKPGKAPKLLIKYASESISGVPSRFSGSGSGTEFTLTISSLQPEDFATYYCQQNNNWPTTFGAGTKLEIKR
notes: EGFR-specific human IgG1 with mutated Fc domain (ADCC/CDC), kappa light chain, N-terminal FLAG tag on the heavy chain; derived from cetuximab by humanization; also called hu225 (anti-EGFR) IgG; anti-EGFR human IgG1 scaffold antibody

binding result [9]: binds | binding result [10]: binds | binding result [11]: binds
B3: Db10-Glyco-scTRAIL3-FAVSGAA (other)
chain: LEASDYKDDDDKGAEVQLVESGGGLVQPGGSLRLSCAASGFSLTNYGVHWVRQAPGKGLEWLGVIWSGGNTDYNTPFTSRFTISRDNSKNTLYLQMNSLRAEDTAVYYCARALTYYDYEFAYWGQGTTVTVSSGGGGSGGGGSDIQLTQSPSFLSASVGDRVTITCRASQSIGTNIHWYQQKPGKAPKLLIKYASESISGVPSRFSGSGSGTEFTLTISSLQPEDFATYYCQQNNNWPTTFGAGTKLEIKRAAAGNGTSNGTSEFGGAAAHITGTRGRSNTLSSPNSKNEKALGRKINSWESSRSGHSFLSNLHLRNGELVIHEKGFYYIYSQTYFRFQEEIKENTKNDKQMVQYIYKYTSYPDPILLMKSARNSCWSKDAEYGLYSIYQGGIFELKENDRIFVSVTNEHLIDMDHEASFFGAFAVSGAAAHITGTRGRSNTLSSPNSKNEKALGRKINSWESSRSGHSFLSNLHLRNGELVIHEKGFYYIYSQTYFRFQEEIKENTKNDKQMVQYIYKYTSYPDPILLMKSARNSCWSKDAEYGLYSIYQGGIFELKENDRIFVSVTNEHLIDMDHEASFFGAFAVSGAAAHITGTRGRSNTLSSPNSKNEKALGRKINSWESSRSGHSFLSNLHLRNGELVIHEKGFYYIYSQTYFRFQEEIKENTKNDKQMVQYIYKYTSYPDPILLMKSARNSCWSKDAEYGLYSIYQGGIFELKENDRIFVSVTNEHLIDMDHEASFFGAFAVS
modifications: glycosylated connecting peptide
notes: also called Db10hu225-Glyco-scTRAIL3-FAVSGAA; Db10-glyco-scTRAIL3-FAVSGGA
EC50 of cell death induction, Colo205, with Bortezomib [8]: 0.013 nM | EC50 of cell death induction, Colo205, with Bortezomib + Cetuximab [8]: 0.066 nM | EC50 of cell death induction, HCT116, with Bortezomib [8]: 0.039 nM | EC50 of cell death induction, HCT116, with Bortezomib + Cetuximab [8]: 0.298 nM | EC50 of cell death induction, HT1080, with Bortezomib [8]: 0.0007 nM | EC50 of cell death induction, HT1080, with Bortezomib + Cetuximab [8]: 0.008 nM
